For seven proteins, Km results are on record in paper PMC5645249.

Substrate in the data set: O=[N+]([O-])O
Briefly: nitrate reduction with reduced Fd, Michaelis-Menten fit. Format: biochemical, Synechococcus elongatus. The note with it: saturating reduced Synechocystis sp. PCC 6803 ferredoxin as electron donor.

B1: Synechococcus sp. PCC 7942 NR (ferredoxin-dependent nitrate reductase) (Synechococcus elongatus PCC 7942 = FACHB-805; K215R) (protein)
chain: MIDTAKTLCPYCGVGCGLEAVPPAQPGRATVRDREGTPIWQIRGDRQHPSSQGMVCVKGATVAESVSKSRLKYPMFRASLDDPFTEISWDEALDRLCDRIQQTQADYGKDGICFYGSGQFQTEDYYIAQKLVKGCLGTNNFDTNSRLCMSSAVSAYSLCLGSDGPPACYEDLDLADCLLIVGSNTAECHPILFNRYRKRHRQGGTNLIVVDPRCTPTAEVADLHLALKPGSDVALLNGLGWLLYQMGYVKKDFIANQTEGFEDWLAIIEDYPPQRTAELTGLAVAELVRAADLIASAQRWLSLWSMGVNQSIQGTAKATSLINLHLLTRQIGLPGCGPFSLTGQPNAMGGRETGGLAHLLPGYRKVIDPQHRADVETIWGLPMGSISPQPGRTAWQMIEGLEQGAVGFLWVAATNPAVSLPDVKRAQAALKRSPFTVLQDAYHPTETTTYAHLLLPAAQWSEKTGTMTNSERRVTLCQAFRQPPGEARADWQIFAEVGRRLGFAFDYTDAAAVFAEYVQVTAGRLCDLSGLSHELLAQAGPQQWPFPAGAEPTTESKRLYTKHHFAYADGRARFQPFHHLGVAEPPDDRYPLVLTVGRLYGHWHTQTRTGRIDKINKLHPSAFVEIHPRDADRYNISEGQAVVIRSRRGEGCFPAKVTTAISPGVLFVPMHWGALWGDRTEANALTHPAACPISGEPELKACAVQIEAASSTFTI
In the case of B1, the Km is 9.6 ± 1.0 µM.

B2: Synechococcus sp. PCC 7942 NR (ferredoxin-dependent nitrate reductase) (Synechococcus elongatus PCC 7942 = FACHB-805; R60K) (protein)
chain: MIDTAKTLCPYCGVGCGLEAVPPAQPGRATVRDREGTPIWQIRGDKQHPSSQGMVCVKGATVAESVSKSRLKYPMFRASLDDPFTEISWDEALDRLCDRIQQTQADYGKDGICFYGSGQFQTEDYYIAQKLVKGCLGTNNFDTNSRLCMSSAVSAYSLCLGSDGPPACYEDLDLADCLLIVGSNTAECHPILFNRYRKRHKQGGTNLIVVDPRCTPTAEVADLHLALKPGSDVALLNGLGWLLYQMGYVKKDFIANQTEGFEDWLAIIEDYPPQRTAELTGLAVAELVRAADLIASAQRWLSLWSMGVNQSIQGTAKATSLINLHLLTRQIGLPGCGPFSLTGQPNAMGGRETGGLAHLLPGYRKVIDPQHRADVETIWGLPMGSISPQPGRTAWQMIEGLEQGAVGFLWVAATNPAVSLPDVKRAQAALKRSPFTVLQDAYHPTETTTYAHLLLPAAQWSEKTGTMTNSERRVTLCQAFRQPPGEARADWQIFAEVGRRLGFAFDYTDAAAVFAEYVQVTAGRLCDLSGLSHELLAQAGPQQWPFPAGAEPTTESKRLYTKHHFAYADGRARFQPFHHLGVAEPPDDRYPLVLTVGRLYGHWHTQTRTGRIDKINKLHPSAFVEIHPRDADRYNISEGQAVVIRSRRGEGCFPAKVTTAISPGVLFVPMHWGALWGDRTEANALTHPAACPISGEPELKACAVQIEAASSTFTI
B2: the Km stood at 6.6 ± 1.0 µM.

B3: Synechococcus sp. PCC 7942 NR (ferredoxin-dependent nitrate reductase) (Synechococcus elongatus PCC 7942 = FACHB-805; R60Q) (protein)
chain: MIDTAKTLCPYCGVGCGLEAVPPAQPGRATVRDREGTPIWQIRGDQQHPSSQGMVCVKGATVAESVSKSRLKYPMFRASLDDPFTEISWDEALDRLCDRIQQTQADYGKDGICFYGSGQFQTEDYYIAQKLVKGCLGTNNFDTNSRLCMSSAVSAYSLCLGSDGPPACYEDLDLADCLLIVGSNTAECHPILFNRYRKRHKQGGTNLIVVDPRCTPTAEVADLHLALKPGSDVALLNGLGWLLYQMGYVKKDFIANQTEGFEDWLAIIEDYPPQRTAELTGLAVAELVRAADLIASAQRWLSLWSMGVNQSIQGTAKATSLINLHLLTRQIGLPGCGPFSLTGQPNAMGGRETGGLAHLLPGYRKVIDPQHRADVETIWGLPMGSISPQPGRTAWQMIEGLEQGAVGFLWVAATNPAVSLPDVKRAQAALKRSPFTVLQDAYHPTETTTYAHLLLPAAQWSEKTGTMTNSERRVTLCQAFRQPPGEARADWQIFAEVGRRLGFAFDYTDAAAVFAEYVQVTAGRLCDLSGLSHELLAQAGPQQWPFPAGAEPTTESKRLYTKHHFAYADGRARFQPFHHLGVAEPPDDRYPLVLTVGRLYGHWHTQTRTGRIDKINKLHPSAFVEIHPRDADRYNISEGQAVVIRSRRGEGCFPAKVTTAISPGVLFVPMHWGALWGDRTEANALTHPAACPISGEPELKACAVQIEAASSTFTI
On to B3, for which the Km stood at 55 ± 20 µM.

B4: Synechococcus sp. PCC 7942 NR (ferredoxin-dependent nitrate reductase) (Synechococcus elongatus PCC 7942 = FACHB-805; R57K) (protein)
chain: MIDTAKTLCPYCGVGCGLEAVPPAQPGRATVRDREGTPIWQIKGDRQHPSSQGMVCVKGATVAESVSKSRLKYPMFRASLDDPFTEISWDEALDRLCDRIQQTQADYGKDGICFYGSGQFQTEDYYIAQKLVKGCLGTNNFDTNSRLCMSSAVSAYSLCLGSDGPPACYEDLDLADCLLIVGSNTAECHPILFNRYRKRHKQGGTNLIVVDPRCTPTAEVADLHLALKPGSDVALLNGLGWLLYQMGYVKKDFIANQTEGFEDWLAIIEDYPPQRTAELTGLAVAELVRAADLIASAQRWLSLWSMGVNQSIQGTAKATSLINLHLLTRQIGLPGCGPFSLTGQPNAMGGRETGGLAHLLPGYRKVIDPQHRADVETIWGLPMGSISPQPGRTAWQMIEGLEQGAVGFLWVAATNPAVSLPDVKRAQAALKRSPFTVLQDAYHPTETTTYAHLLLPAAQWSEKTGTMTNSERRVTLCQAFRQPPGEARADWQIFAEVGRRLGFAFDYTDAAAVFAEYVQVTAGRLCDLSGLSHELLAQAGPQQWPFPAGAEPTTESKRLYTKHHFAYADGRARFQPFHHLGVAEPPDDRYPLVLTVGRLYGHWHTQTRTGRIDKINKLHPSAFVEIHPRDADRYNISEGQAVVIRSRRGEGCFPAKVTTAISPGVLFVPMHWGALWGDRTEANALTHPAACPISGEPELKACAVQIEAASSTFTI
On to B4, for which the Km was determined as 8.1 ± 0.7 µM.

B5: Synechococcus sp. PCC 7942 NR (ferredoxin-dependent nitrate reductase) (Synechococcus elongatus PCC 7942 = FACHB-805; E233Q) (protein)
chain: MIDTAKTLCPYCGVGCGLEAVPPAQPGRATVRDREGTPIWQIRGDRQHPSSQGMVCVKGATVAESVSKSRLKYPMFRASLDDPFTEISWDEALDRLCDRIQQTQADYGKDGICFYGSGQFQTEDYYIAQKLVKGCLGTNNFDTNSRLCMSSAVSAYSLCLGSDGPPACYEDLDLADCLLIVGSNTAECHPILFNRYRKRHKQGGTNLIVVDPRCTPTAQVADLHLALKPGSDVALLNGLGWLLYQMGYVKKDFIANQTEGFEDWLAIIEDYPPQRTAELTGLAVAELVRAADLIASAQRWLSLWSMGVNQSIQGTAKATSLINLHLLTRQIGLPGCGPFSLTGQPNAMGGRETGGLAHLLPGYRKVIDPQHRADVETIWGLPMGSISPQPGRTAWQMIEGLEQGAVGFLWVAATNPAVSLPDVKRAQAALKRSPFTVLQDAYHPTETTTYAHLLLPAAQWSEKTGTMTNSERRVTLCQAFRQPPGEARADWQIFAEVGRRLGFAFDYTDAAAVFAEYVQVTAGRLCDLSGLSHELLAQAGPQQWPFPAGAEPTTESKRLYTKHHFAYADGRARFQPFHHLGVAEPPDDRYPLVLTVGRLYGHWHTQTRTGRIDKINKLHPSAFVEIHPRDADRYNISEGQAVVIRSRRGEGCFPAKVTTAISPGVLFVPMHWGALWGDRTEANALTHPAACPISGEPELKACAVQIEAASSTFTI
With B5, the Km is listed as 4.5 ± 0.4 µM.

B6: Synechococcus sp. PCC 7942 NR (ferredoxin-dependent nitrate reductase) (Synechococcus elongatus PCC 7942 = FACHB-805; K628R) (protein)
chain: MIDTAKTLCPYCGVGCGLEAVPPAQPGRATVRDREGTPIWQIRGDRQHPSSQGMVCVKGATVAESVSKSRLKYPMFRASLDDPFTEISWDEALDRLCDRIQQTQADYGKDGICFYGSGQFQTEDYYIAQKLVKGCLGTNNFDTNSRLCMSSAVSAYSLCLGSDGPPACYEDLDLADCLLIVGSNTAECHPILFNRYRKRHKQGGTNLIVVDPRCTPTAEVADLHLALKPGSDVALLNGLGWLLYQMGYVKKDFIANQTEGFEDWLAIIEDYPPQRTAELTGLAVAELVRAADLIASAQRWLSLWSMGVNQSIQGTAKATSLINLHLLTRQIGLPGCGPFSLTGQPNAMGGRETGGLAHLLPGYRKVIDPQHRADVETIWGLPMGSISPQPGRTAWQMIEGLEQGAVGFLWVAATNPAVSLPDVKRAQAALKRSPFTVLQDAYHPTETTTYAHLLLPAAQWSEKTGTMTNSERRVTLCQAFRQPPGEARADWQIFAEVGRRLGFAFDYTDAAAVFAEYVQVTAGRLCDLSGLSHELLAQAGPQQWPFPAGAEPTTESKRLYTKHHFAYADGRARFQPFHHLGVAEPPDDRYPLVLTVGRLYGHWHTQTRTGRIDRINKLHPSAFVEIHPRDADRYNISEGQAVVIRSRRGEGCFPAKVTTAISPGVLFVPMHWGALWGDRTEANALTHPAACPISGEPELKACAVQIEAASSTFTI
Regarding B6, the Km turned out to be 4.2 ± 0.5 µM.

B7: Synechococcus sp. PCC 7942 NR (ferredoxin-dependent nitrate reductase) (Synechococcus elongatus PCC 7942 = FACHB-805; R211Q) (protein)
chain: MIDTAKTLCPYCGVGCGLEAVPPAQPGRATVRDREGTPIWQIRGDRQHPSSQGMVCVKGATVAESVSKSRLKYPMFRASLDDPFTEISWDEALDRLCDRIQQTQADYGKDGICFYGSGQFQTEDYYIAQKLVKGCLGTNNFDTNSRLCMSSAVSAYSLCLGSDGPPACYEDLDLADCLLIVGSNTAECHPILFNRYQKRHKQGGTNLIVVDPRCTPTAEVADLHLALKPGSDVALLNGLGWLLYQMGYVKKDFIANQTEGFEDWLAIIEDYPPQRTAELTGLAVAELVRAADLIASAQRWLSLWSMGVNQSIQGTAKATSLINLHLLTRQIGLPGCGPFSLTGQPNAMGGRETGGLAHLLPGYRKVIDPQHRADVETIWGLPMGSISPQPGRTAWQMIEGLEQGAVGFLWVAATNPAVSLPDVKRAQAALKRSPFTVLQDAYHPTETTTYAHLLLPAAQWSEKTGTMTNSERRVTLCQAFRQPPGEARADWQIFAEVGRRLGFAFDYTDAAAVFAEYVQVTAGRLCDLSGLSHELLAQAGPQQWPFPAGAEPTTESKRLYTKHHFAYADGRARFQPFHHLGVAEPPDDRYPLVLTVGRLYGHWHTQTRTGRIDKINKLHPSAFVEIHPRDADRYNISEGQAVVIRSRRGEGCFPAKVTTAISPGVLFVPMHWGALWGDRTEANALTHPAACPISGEPELKACAVQIEAASSTFTI
For B7, the Km was determined as 7.0 ± 0.7 µM.

As usually defined, the Km is the concentration of substrate that gives half-maximal velocity.
